Usually stoichiometry N stands for the number of molecules, sites or subunits per partner or assembly.

Here are results for two substances from paper doi:10.1101/2024.08.09.607165.

Assay [1] deals with TraT encoded by pKpQIL (TraT_(pKpQIL)), mature protein C36-L258 (K. pneumoniae (plasmid pKpQIL)). Briefly: cryo-EM structure.
Assay [2] deals with TraT encoded by the F plasmid derivative pOX38 (TraTF), mature protein C21-L244 (E. coli (F plasmid, pOX38)). Briefly: cryo-EM structure.

Regarding “TraT encoded by pKpQIL (TraT_(pKpQIL)), mature protein C36-L258 (natural protein)”, the stoichiometry N in assay [1] was 10. Regarding “TraT encoded by the F plasmid derivative pOX38 (TraTF), mature protein C21-L244 (natural protein)”, in assay [2], the stoichiometry N stood at 10.
